Columns and labels:
Type in all cases: cell-based, mouse
ES cells = experiment: Primary neural sphere colony formation from ES cells in serum-free low-density culture, 7 days; conditions: for primary colony formation, factor alone: ES cells at relatively low cell densities, serum-free, 7 days in vitro
Protocol: For passaging ES cells, cultures were disaggregated with 0.05% trypsin dissolved in Tris-saline/EDTA for 5–10 minutes, mechanically dissociated, centrifuged and resuspended in culture medium.
Passaged ES cells were washed (2 times), centrifuged and resuspended in chemically defined serum-free media (Reynolds et al., 1992; Reynolds & Weiss, 1996) composed of a 1:1 mixture of Dulbecco's modified Eagle's medium (DMEM GIBCO) and F-12 nutrient (GIBCO) including 0.6% glucose (Sigma), 2 mM glutamine (GIBCO), 3 mM sodium bicarbonate (Sigma), and 5 mM HEPFS buffer (Sigma). A defined hormone and salt mixture (Sigma) that included insulin (25 (g/ml), transferrin (100 (g/ml), progestrone (20 nM), putrescine (60 (M), and selenium chloride (30 nM) was used instead of serum. ES cells were plated at various cell densities in 24-well culture plates (Nunclon) in the presence of either LIF (1000 U/ml), LIF+FGF2 (10 ng/ml; Upstate Biotech or Sigma) and 2 (g/ml heparin (Sigma), or in the absence of any exogenous growth factors. For short term (4–24 hours) neural differentiation, ES cells were plated in identical culture conditions in 24-well culture plates (Nunclon) that were precoated with poly-L-ornithine (15 μg/ml, Gibco).
Limiting dilution analysis was performed as previously described (Bellows and Aubin, 1989; Tropepe et al., 1999). ES cells were plated in 24-well plates containing LIF (1000 U/ml). Cell numbers were adjusted to give a starting concentration of 5000 cells/ml from which serial dilutions were made. Final cell dilutions ranged from 1000 cells per well to 1 cell per well in 0.5 ml aliquots. Cultures were left undisturbed for 7 days after which time the fraction of wells not containing sphere colonies for each cell plating density was calculated and those points were plotted against the number of cells plated per well. The number of cells required to form one sphere colony, which reflected the proportion of neural stem cells in the entire population, was then determined from the point at which the regression line crossed the 0.37 level (37%). That is […], where F0 is the fraction of wells without sphere colonies and x is the mean number of cells per well. Based on a Poisson distribution of cells, F0=0.37 corresponds to the dilution at which there is one neural stem cell per well. The linear relationship observed between the cell density and the number of sphere colonies generated (regression coefficient R^2=0.99) can be accounted for by the clonal proliferation of a single rare population of cells.
Neuro2a (a murine neuroblastoma cell line) cells were seeded at 1×10^6 cells per 100 mm petri dish and transiently transfected with 10 μg of plasmid DNA by means of LipofectAMINE (Gibco) according to the manufacturer's instructions. After 6 hours, the culture media was changed to 10 ml of DMEM+10% FBS (Gibco). Twenty-four hours after transfection, culture media was changed to […] of serum-free media. Seventy-two hours after transfection, cell supernatant was collected and centrifuged to remove cellular debris. Supernatant media was aliquoted and stored at −70° C. […] Thus data from the 20% (v/v) experiments were used for the analysis. The plasmids pCS-V2 (gift from Dr. R. Moon) Hoppler et al., 1996) and pCS-cer-I (a gift from Dr. E. De Robertis) (Belo et al., 1997) were used.

[1] = tested on: ES-derived neural sphere colony cells; experiment: Subcloning of single ES-derived sphere colonies (secondary colony formation, self-renewal); conditions: subcloned single primary colonies; factor alone
Protocol: Self-renewal of primary colony-formin) ES cells was assessed as previously described (Tropepe et al., 1999). Single sphere colonies were isolated, mechanically dissociated into a single cell suspension in 0.2 ml of serum-free media containing various combinations of LIF (1000 U/ml), […] (10 ng/ml), heparin (2 (g/ml), EGF (20 ng/ml; Upstate Biotech) or B27 supplement (1X) and cultured in 96-well (Nunclon) plates. Secondary sphere colonies were quantified after 7–10 days. A similar procedure was used for repeated passaging experiments. Cell viability after a 7-day culture period (sphere colony assay) or after 4–24 hours (short-term ES differentiation assay) was determined using trypan blue exclusion (1:2 dilution of 0.4% trypan blue; Gibco).

[2] = tested on: ES derived neural colonies; experiment: RT-PCR gene expression in ES-derived neural colonies; conditions: mCer-1 enriched media versus control media; data not shown
Protocol: Total RNA was isolated using the RNeasy extraction kit (Qiagen) and 1 μg of total RNA was used to synthesize cDNA with oligo-d(T)12-18 primers and MuMLV reverse transcriptase (Superscript II; Boehringer-Mannheim) at 42° C. for 1 hour. The PCR mixture (20 μl) consisted of 1 μl cDNA, 16 pmol 5 ″ primer, 16 pmol 3′ primer, specific for the gene in question 0.2 mM dNTP, 2 μl PCR reaction buffer and 0.8 U of Taq polymerase (Promega). cDNA was amplified in a thermal cycler (Perkin-Elmer) For all primer pairs denaturation for 30 sec at 94° C., annealing for 30 sec and extension at 72° C. was used. The sense and antisense primers, Mg^2 concentration, annealing temperature, extension time and number of PCR cycles were used for the following genes. Emx2: sense 5′-[…]-3′ (SEQ ID. No. 1), antisense 5′ […]-3′(SEQ. ID. No. 2), 1.65 mM Mg^2+, 56° C., 40 sec, 40 cycles. HoxB1: sense 5′-CCGGACCTTCGACTGGATG-3′(SEQ. ID. No. 3). antisense 5′-GGTCAGAGGCATCTCCAGC-3′(SEQ. ID. No. 4), 1.35 mM Mg^2+, 58° C., 40 sec, 40 cycles. Otx1: sense 5′-[…]-3′(SEQ. ID. No. 5). antisense 5′-[…]-3′(SEQ. ID. No. 6), 1.65 mM Mg^2+, 58° C., 40 sec, 40 cycles. Six3: sense 5′-[…]-3′(SEQ. ID. No. 7), antisense 5′-[…]-3′(SEQ. ID. No. 8), 1.35 mM Mg^2+, 56° C., 40 sec, 40 cycles. Brechyury: sense 5′-[…]-3′(SEQ. ID. No. 9), antisense 5′-[…]-3′(SEQ. ID. No. 10), 1.65 mM Mg^2+, 56° C., 1 min. 35 cycles. […]

B1: BMP4: Human recombinant BMP4 protein provided by Genetics Institute Inc. (protein)
chain: SPKHHPQRSRKKNKNCRRHSLYVDFSDVGWNDWIVAPPGYQAFYCHGDCPFPLADHLNSTNHAIVQTLVNSVNSSIPKACCVPTELSAISMLYLDEYDKVVLKNYQEMVVEGCGCR
further effect on number of sphere colonies at higher BMP4 concentration (ES cells; 5-fold increase in BMP4 concentration, LIF and FGF2): did not further significantly attenuate the number of sphere colonies generated | decrease in the number of sphere colonies generated (ES cells; BMP4 5 ng/ml, ES cell cultures containing LIF and FGF2, 20 cells/ul, 7 days): greater than 50%

B2: Noggin: BMP protein antagonist; human recombinant Noggin protein provided by Regeneron Pharmaceuticals Inc. (protein)
chain: QHYLHIRPAPSDNLPLVDLIEHPDPIFDPKEKDLNETLLRSLLGGHYDPGFMATSPPEDRPGGGGGAAGGAEDLAELDQLLRQRPSGAMPSEIKGLEFSEGLAQGKKQRLSKKLRRKLQMWLWSQTFCPVLYAWNDLGSRFWPRYVKVGSCFSKRSCSVPEGMVCKPSKSVHLTVLRWRCQRRGGQRCGWIPIQYPIISECKCSC
increase in the number of sphere colonies generated (ES cells; Noggin 100 μg/ml, primary ES cell cultures with LIF+FGF2, 7 days): 50% | further effect on number of sphere colonies with rising Noggin concentration (ES cells; Noggin from 10 μg/ml to 100 μg/ml): no additional increase in the numbers of sphere colonies generated

B3: CNTT: another member of the cytokine family of signaling molecules to which LIF belongs (protein, UniProt P26441 1-200, looked up)
Ciliary neurotrophic factor: MAFTEHSPLTPHRRDLCSRSIWLARKIRSDLTALTESYVKHQGLNKNINLDSADGMPVASTDQWSELTEAERLQENLQAYRTFHVLLARLLEDQQVHFTPTEGDFHQAIHTLLLQVAAFAYQIEELMILLEYKIPRNEADGMPINVGDGGLFEKKLWGLKVLQELSQWTVRSIHDLRFISSHQTGIPARGSHYIANNKKM
primary colony formation, factor alone (ES cells): unable to substitute as a colony-promoting factor

B4: FGF2: fibroblast growth factor family growth factor, 10 ng/ml with heparin (protein)
chain: PALPEDGGAAFPPGHFKDPKRLYCKNGGFFLRIHPDGRVDGVREKSDPHVKLQLQAEERGVVSIKGVCANRYLAMKEDGRLLASKCVTEECFFFERLESNNYNTYRSRKYSSWYVALKRTGQYKLGSKTGPGQKAILFLPMSAKS
secondary neural stem cell colony formation [1]: dependent upon the presence of exogenous FGF2 | primary colony formation, factor alone (ES cells): no cell colonies were generated | primary colony formation, factor combined with LIF versus LIF alone (ES cells; combined with LIF): non-significant trend toward facilitating LIF-dependent colony formation

B5: mCer-1: mouse Cerberus-like protein in supernatant from transiently transfected Neuro2a cells (protein)
chain: DLCVDGCQSQGSLSFPLLERGRRDLHVANHEEAEDKPDLFVAVPHLMGTSLAGEGQRQRGKMLSRLGRFWKKPETEFYPPRDVESDHVSSGMQAVTQPADGRKVERSPLQEEAKRFWHRFMFRKGPAFQGVILPIKSHEVHWETCRTVPFNQTIAHEDCQKVVVQNNLCFGKCSSIRFPGEGADAHSFCSHCSPTKFTTVHLMLNCTSPTPVVKMVMQVEECQCMVKTERGEERLLLAGSQGSFIPGLPASKTNP
increase in the numbers of primary neural stem cell colonies (ES cells; 20% (v/v) mCer-1 supernatant in 0.5 ml serum-free media+LIF, versus backbone vector supernatant): ~50% | Otx-1 expression in ES derived neural colonies [2]: express Otx-1

Reference: patent publication US7211434B2, “Primitive neural stem cells and method for differentiation of stem cells to neural cells” (priority 2000, dated 2007)
